Experimental data as given in publication PMC12814185, “Receptor-Mediated Shuttling of a D‑Amino Acid Peptide Achieves High Nanomolar Cytosolic Concentrations” (Journal of the American Chemical Society, 2025).
[ ]: non-standard residue; d: D form. sulfo‑Cy5 = sulfo-cyanine 5 dye; Cit = NC(=O)NCCC[C@H](N)C(=O)O; Pra = C#CC[C@H](N)C(=O)O; (EG)3 = spacer

Tests used:
[1] = biological target: T1, chemokine-like receptor 1 (CMKLR1) (UniProt Q99788 1-373); experiment: cell-based or functional assay
T1 sequence (looked up): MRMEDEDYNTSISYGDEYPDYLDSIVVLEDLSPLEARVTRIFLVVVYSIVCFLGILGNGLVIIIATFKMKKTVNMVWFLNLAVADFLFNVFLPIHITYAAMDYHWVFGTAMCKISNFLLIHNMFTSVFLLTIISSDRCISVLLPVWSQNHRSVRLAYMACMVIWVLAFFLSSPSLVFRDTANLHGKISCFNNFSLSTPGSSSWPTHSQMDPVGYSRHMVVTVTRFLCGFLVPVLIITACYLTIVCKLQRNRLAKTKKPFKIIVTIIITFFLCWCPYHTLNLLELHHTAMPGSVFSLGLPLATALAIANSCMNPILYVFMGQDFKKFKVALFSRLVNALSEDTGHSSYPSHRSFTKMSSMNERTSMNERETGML

[2] = biological target: T2, recombinant human GST-MDM2 (human, UniProt Q00987 1-491); experiment: fluorescence polarisation; conditions: both partners purified
T2 construct: source: recombinant
T2 sequence (Q00987 whole entry): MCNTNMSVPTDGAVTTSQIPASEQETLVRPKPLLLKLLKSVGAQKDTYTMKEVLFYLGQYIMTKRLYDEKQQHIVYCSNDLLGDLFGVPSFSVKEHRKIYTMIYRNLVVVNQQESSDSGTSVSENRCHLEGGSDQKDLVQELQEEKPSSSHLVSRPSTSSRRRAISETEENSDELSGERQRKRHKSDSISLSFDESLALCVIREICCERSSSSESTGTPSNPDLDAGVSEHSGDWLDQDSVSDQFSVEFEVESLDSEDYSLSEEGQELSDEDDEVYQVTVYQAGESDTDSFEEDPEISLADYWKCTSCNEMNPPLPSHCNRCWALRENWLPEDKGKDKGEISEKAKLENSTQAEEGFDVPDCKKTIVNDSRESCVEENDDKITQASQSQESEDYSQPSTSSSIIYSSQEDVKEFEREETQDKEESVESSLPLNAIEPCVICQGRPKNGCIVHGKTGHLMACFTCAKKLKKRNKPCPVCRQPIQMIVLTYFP

B1: Cy5-PMIγ-cC9 (peptide)
chain: {sulfo‑Cy5-(EG)3}-[dD][dW][dW][dP][dL][dA][dF][dE][dA][dL][dL][dR]GEV[Cit]-{(EG)3-Pra-NH2}
modifications: not fully specified (bridges); also: CuAAC triazole link from Pra to azidolysine of the cC9 chain
In the case of B1, the “Ca2+ flux assay, EC50” value [1] is reported as 185 nM and the Kd [2] is reported as 90 nM.
